In IntAct's records for PubMed 12852788:

B1: Lymphocyte antigen 6 complex locus protein G6f (Homo sapiens), Q5SQ64 (parent)
chain: MAVLFLLLFLCGTPQAADNMQAIYVALGEAVELPCPSPPTLHGDEHLSWFCSPAAGSFTTLVAQVQVGRPAPDPGKPGRESRLRLLGNYSLWLEGSKEEDAGRYWCAVLGQHHNYQNWRVYDVLVLKGSQLSARAADGSPCNVLLCSVVPSRRMDSVTWQEGKGPVRGRVQSFWGSEAALLLVCPGEGLSEPRSRRPRIIRCLMTHNKGVSFSLAASIDASPALCAPSTGWDMPWILMLLLTMGQGVVILALSIVLWRQRVRGAPGRDASIPQFKPEIQVYENIHLARLGPPAHKPR

Variants of: B1
Settings: with grb7_human GRB7, Q14451
Chain of grb7_human GRB7, Q14451 (Q14451 whole entry): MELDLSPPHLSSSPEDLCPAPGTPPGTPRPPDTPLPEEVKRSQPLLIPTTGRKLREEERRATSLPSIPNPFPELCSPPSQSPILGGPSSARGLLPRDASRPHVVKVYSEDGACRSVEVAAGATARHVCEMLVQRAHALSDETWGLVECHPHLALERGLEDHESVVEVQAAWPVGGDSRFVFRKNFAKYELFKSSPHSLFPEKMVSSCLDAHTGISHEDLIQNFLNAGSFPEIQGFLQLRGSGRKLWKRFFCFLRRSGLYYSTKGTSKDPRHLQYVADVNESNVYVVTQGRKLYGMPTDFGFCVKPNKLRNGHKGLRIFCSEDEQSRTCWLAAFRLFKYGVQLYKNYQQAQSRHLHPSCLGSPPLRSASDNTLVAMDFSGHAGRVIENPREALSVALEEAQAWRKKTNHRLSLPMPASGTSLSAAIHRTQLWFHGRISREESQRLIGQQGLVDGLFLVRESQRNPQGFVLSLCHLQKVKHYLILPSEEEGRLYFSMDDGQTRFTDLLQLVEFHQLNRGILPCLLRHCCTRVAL

Variant | effect of a mutation on the interaction
MAVLFLLLFLCGTPQAADNMQAIYVALGEAVELPCPSPPTLHGDEHLSWFCSPAAGSFTTLVAQVQVGRPAPDPGKPGRESRLRLLGNYSLWLEGSKEEDAGRYWCAVLGQHHNYQNWRVYDVLVLKGSQLSARAADGSPCNVLLCSVVPSRRMDSVTWQEGKGPVRGRVQSFWGSEAALLLVCPGEGLSEPRSRRPRIIRCLMTHNKGVSFSLAASIDASPALCAPSTGWDMPWILMLLLTMGQGVVILALSIVLWRQRVRGAPGRDASIPQFKPEIQVFENIHLARLGPPAHKPR [Y281F] | disrupting interaction strength

Variants of: B1
Settings: with grb2_human GRB2, P62993
Chain of grb2_human GRB2, P62993 (P62993 whole entry, looked up): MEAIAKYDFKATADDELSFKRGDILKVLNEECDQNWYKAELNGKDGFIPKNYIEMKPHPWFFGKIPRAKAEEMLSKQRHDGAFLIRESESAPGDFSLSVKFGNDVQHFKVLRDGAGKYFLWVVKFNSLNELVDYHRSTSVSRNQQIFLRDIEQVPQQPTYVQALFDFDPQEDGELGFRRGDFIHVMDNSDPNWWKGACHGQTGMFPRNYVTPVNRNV

Variant | effect of a mutation on the interaction
MAVLFLLLFLCGTPQAADNMQAIYVALGEAVELPCPSPPTLHGDEHLSWFCSPAAGSFTTLVAQVQVGRPAPDPGKPGRESRLRLLGNYSLWLEGSKEEDAGRYWCAVLGQHHNYQNWRVYDVLVLKGSQLSARAADGSPCNVLLCSVVPSRRMDSVTWQEGKGPVRGRVQSFWGSEAALLLVCPGEGLSEPRSRRPRIIRCLMTHNKGVSFSLAASIDASPALCAPSTGWDMPWILMLLLTMGQGVVILALSIVLWRQRVRGAPGRDASIPQFKPEIQVFENIHLARLGPPAHKPR [Y281F] | disrupting interaction strength
